Patent US12059562B2, “Systems for electrical stimulation” (priority 2018, dated 2024)

Test system: Micrococcus lysodeikticus cells
Experiment: Lysozyme enzyme activity assay
Type: biochemical
Settings: micropost tips 80% lysozyme and 20% PEO 200k versus uncompressed powder
Method: To measure the activity of lysozyme, the assay provided by Sigma Aldrich was used which measures the amount of lysed Micrococcus lysodeikticus cells. Briefly, a 200 unit/mL Lysozyme solution in 50 mM Potassium Phosphate Buffer was added to a 0.015% [w/v] Micrococcus lysodeikticus cell suspension in the same buffer. The decrease was recorded in A450 over 5 minutes. Nine micropost tips were fabricated from 80% lysozyme and 20% PEO 200k and dissolved sets of three micropost tips together. Triplicate assays were performed on each dissolved solution for a total of nine tests and the results were compared to the results of a solution made with lysozyme that was not compressed into a micropost tip.

## lysozyme
  enzymatic activity after the manufacturing process: maintain their activity
